Patent US5969094A, “Anti-paramyxovirus screening method and vaccine” (Emory University, priority 1996, dated 1999)
Changes are numbered by the printed parent chain.

T1: PI2F + PI2HN (Human parainfluenza 2 virus, UniProt P25467)
T1 construct: expressed in transfected cells; host or cells: HeLa-T4 cells infected with vTF7.3
T1 sequence (P25467 107-551 limits assumed): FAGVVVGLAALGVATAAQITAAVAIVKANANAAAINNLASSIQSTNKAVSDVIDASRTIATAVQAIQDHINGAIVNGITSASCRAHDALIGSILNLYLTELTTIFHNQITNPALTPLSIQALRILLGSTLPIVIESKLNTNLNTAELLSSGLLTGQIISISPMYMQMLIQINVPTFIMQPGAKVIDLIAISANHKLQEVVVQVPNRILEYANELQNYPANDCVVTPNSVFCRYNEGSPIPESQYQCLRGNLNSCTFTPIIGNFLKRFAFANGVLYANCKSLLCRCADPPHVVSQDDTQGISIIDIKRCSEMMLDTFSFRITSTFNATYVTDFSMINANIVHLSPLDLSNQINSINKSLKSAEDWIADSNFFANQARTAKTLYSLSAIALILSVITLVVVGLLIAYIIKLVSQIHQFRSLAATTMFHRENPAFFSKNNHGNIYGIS
T1 sequence (P25467 24-106 partner limits assumed): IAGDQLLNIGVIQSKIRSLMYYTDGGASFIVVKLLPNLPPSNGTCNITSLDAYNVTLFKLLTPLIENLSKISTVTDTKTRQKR

T2: SN-F, fusion glycoprotein of Sendai virus (Sendai virus (SN), UniProt P04855)
T2 sequence: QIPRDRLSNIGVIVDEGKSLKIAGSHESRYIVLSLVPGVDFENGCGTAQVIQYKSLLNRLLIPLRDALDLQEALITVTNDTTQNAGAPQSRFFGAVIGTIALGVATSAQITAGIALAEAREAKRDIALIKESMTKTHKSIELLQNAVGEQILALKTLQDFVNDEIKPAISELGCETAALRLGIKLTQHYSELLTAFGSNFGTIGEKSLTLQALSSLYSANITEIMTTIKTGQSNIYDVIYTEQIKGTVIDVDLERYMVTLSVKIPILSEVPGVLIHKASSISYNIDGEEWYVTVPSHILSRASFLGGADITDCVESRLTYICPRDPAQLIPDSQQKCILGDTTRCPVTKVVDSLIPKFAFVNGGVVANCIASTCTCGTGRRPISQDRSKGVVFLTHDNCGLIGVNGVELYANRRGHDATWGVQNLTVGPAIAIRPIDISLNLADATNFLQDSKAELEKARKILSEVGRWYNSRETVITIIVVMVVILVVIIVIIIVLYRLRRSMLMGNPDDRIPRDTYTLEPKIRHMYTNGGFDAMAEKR

T3: SN-F (Sendai virus, UniProt P04855)
T3 sequence (P04855 117-565 limits assumed): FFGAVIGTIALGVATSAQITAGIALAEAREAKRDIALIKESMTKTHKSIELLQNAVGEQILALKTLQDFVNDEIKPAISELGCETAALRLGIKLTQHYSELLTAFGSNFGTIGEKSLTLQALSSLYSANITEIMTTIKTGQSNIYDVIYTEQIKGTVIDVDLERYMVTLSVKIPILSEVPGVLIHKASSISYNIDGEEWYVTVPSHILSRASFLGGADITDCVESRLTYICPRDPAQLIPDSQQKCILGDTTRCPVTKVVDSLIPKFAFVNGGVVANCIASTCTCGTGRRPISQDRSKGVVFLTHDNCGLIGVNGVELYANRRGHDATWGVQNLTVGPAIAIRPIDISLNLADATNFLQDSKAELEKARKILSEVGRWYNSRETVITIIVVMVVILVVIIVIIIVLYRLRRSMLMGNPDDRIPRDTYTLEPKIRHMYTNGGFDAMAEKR
T3 sequence (P04855 26-116 partner limits assumed): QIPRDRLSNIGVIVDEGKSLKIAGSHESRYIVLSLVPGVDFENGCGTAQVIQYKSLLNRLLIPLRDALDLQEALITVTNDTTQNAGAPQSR

B1: SN(59-140)d chimeric HN protein (other)
chain: MEYWKHTNHGKDAGNELETSMATHGNKITNKITYILWTIILVLLSIVFIIVLISARQGYSMKEYSMTVEALNMSSREVKESLTSLIRQEVIARAVNIQSSVQTGIPVLLNKNSRDVIQMIDKSCSRQELTQHCESRITHDVGIKPLNPDDFWRCTSGLPSLMKTPKIRLMPGPGLLAMPTTVDGCVRTPSLVINDLIYAYTSNLITRGCQDIGKSYQVLQIGIITVNSDLVPDLNPRISHTFNINDNRKSCSLALLNTDVYQLCSTPKVDERSDYASSGIEDIVLDIVNHDGSISTTRFKNNNISFDQPYAALYPSVGPGIYYKGKIIFLGYGGLEHPINENAICNTTGCPGKTQRDCNQASHSPWFSDRRMVNSIIVVDKGLNSIPKLKVWTISMRQNYWGSEGRLLLLGNKIYIYTRSTSWHSKLQLGIIDITDYSDIRIKWTWHNVLSRPGNNECPWGHSCPDGCITGVYTDAYPLNPTGSIVSSVILDSQKSRVNPVITYSTSTERVNELAIRNKTLSAGYTTTSCITHYNKGYCFHIVEINHKSLDTFQPMLFKTEIPKSCS
B2: SN(80-140)d chimeric HN protein (other)
chain: MEYWKHTNHGKDAGNELETSMATHGNKITNKITYILWTIILVLLSIVFIIVLINSIKSEKAHESLLQDVNNEFMSREVKESLTSLIRQEVIARAVNIQSSVQTGIPVLLNKNSRDVIQMIDKSCSRQELTQHCESRITHDVGIKPLNPDDFWRCTSGLPSLMKTPKIRLMPGPGLLAMPTTVDGCVRTPSLVINDLIYAYTSNLITRGCQDIGKSYQVLQIGIITVNSDLVPDLNPRISHTFNINDNRKSCSLALLNTDVYQLCSTPKVDERSDYASSGIEDIVLDIVNHDGSISTTRFKNNNISFDQPYAALYPSVGPGIYYKGKIIFLGYGGLEHPINENAICNTTGCPGKTQRDCNQASHSPWFSDRRMVNSIIVVDKGLNSIPKLKVWTISMRQNYWGSEGRLLLLGNKIYIYTRSTSWHSKLQLGIIDITDYSDIRIKWTWHNVLSRPGNNECPWGHSCPDGCITGVYTDAYPLNPTGSIVSSVILDSQKSRVNPVITYSTSTERVNELAIRNKTLSAGYTTTSCITHYNKGYCFHIVEINHKSLDTFQPMLFKTEIPKSCS
B3: SN(54-140) chimeric HN protein (other)
chain: MEYWKHTNHGKDAGNELETSMATHGNKITNKITYILWTIILVLLSIVFIIVLIICIIISARQGYSMKEYSMTVEALNMSSREVKESLTSLIRQEVIARAVNIQSSVQTGIPVLLNKNSRDVIQMIDKSCSRQELTQHCESRITHDVGIKPLNPDDFWRCTSGLPSLMKTPKIRLMPGPGLLAMPTTVDGCVRTPSLVINDLIYAYTSNLITRGCQDIGKSYQVLQIGIITVNSDLVPDLNPRISHTFNINDNRKSCSLALLNTDVYQLCSTPKVDERSDYASSGIEDIVLDIVNHDGSISTTRFKNNNISFDQPYAALYPSVGPGIYYKGKIIFLGYGGLEHPINENAICNTTGCPGKTQRDCNQASHSPWFSDRRMVNSIIVVDKGLNSIPKLKVWTISMRQNYWGSEGRLLLLGNKIYIYTRSTSWHSKLQLGIIDITDYSDIRIKWTWHNVLSRPGNNECPWGHSCPDGCITGVYTDAYPLNPTGSIVSSVILDSQKSRVNPVITYSTSTERVNELAIRNKTLSAGYTTTSCITHYNKGYCFHIVEINHKSLDTFQPMLFKTEIPKSCS
B4: SN(59-140) chimeric HN protein (other)
chain: B3 chain with I54N, C55S, I57K, I58S

Tests used:
PI3 virus = assay type: cell-based, human parainfluenza type 3 virus
PI3F + PI3HN = PI3F + PI3HN (Human parainfluenza 3 virus, UniProt P06828)
PI2 virus [1] = assay type: cell-based, parainfluenza virus type 2
PI2F + PI2HN = target: T1, PI2F + PI2HN; assay type: cell-based, parainfluenza virus type 2
PI2 virus [2] = experiment: Inhibition of virus production (released virus titer) in HeLa-T4 cells, PI2; assay type: cell-based, parainfluenza virus type 2; conditions: compared with 2F1B34
[3] = target: PI2 F plus PI2 HN (viral glycoproteins of PI2 virus; HN:F) (parainfluenza type 2 (PI2) virus)
[4] = target: PI2 F plus PI2 HN (viral glycoproteins of PI2 virus; HN:F) (parainfluenza type 2 (PI2) virus); remark: listed apart in the source
[5] = target: PI2 F plus PI2 HN (viral glycoproteins of PI2 virus; HN:F) (parainfluenza type 2 (PI2) virus); remark: listed apart in the source
[6] = target: T2, SN-F, fusion glycoprotein of Sendai …; experiment: cell-based or functional assay
HeLa-T4 cells = assay type: cell-based
SN-F = target: T3, SN-F; assay type: cell-based
guinea pig erythrocytes = assay type: cell-based
[7] = target: PI3 F plus PI3 HN (viral glycoproteins of PI3 virus; HN:F) (parainfluenza type 3 (PI3) virus, UniProt P06828); experiment: cell-based or functional assay
[8] = incubated with peptide, concentration not given

Molecule | Fusion activity (%), β-galactosidase production in the fusion dependent reporter gene activation assay [6] | Cell surface expression (%) (HeLa-T4 cells) | Relative fusion promoting activity b/a (SN-F) | HAD activity as percentage of wild type SN-HN hemadsorption (guinea pig erythrocytes) | hemadsorption observed under the microscope (guinea pig erythrocytes) | other results
3F1B24: 24 a.a. PI3F peptide corresponding to the heptad repeat B only (ELNKAKSDLEESKEWIRRSNQKLD) | – | – | – | – | – | inhibition of PI3 cell fusion at high peptide concentration (PI3 virus): could only partially inhibit cell fusion; syncytium formation / inhibition of cell fusion in PI3 infected HeLa-T4 cells (in words) (PI3 virus; [8]): dramatically decreased; inhibition of PI3 virus-induced cell fusion (PI3 virus; peptide 200 μM or more, 24 h post infection): partially inhibited; inhibition of cell fusion by vaccinia-expressed PI3 F and HN (in words) (PI3F + PI3HN): only partially inhibited cell fusion
2F1B21: 21 a.a. PI2F peptide from the beginning of the transmembrane domain to a predicted glycosylation site in the heptad repeat B region (KSAEDWIADSNFFANQARTAK) | – | – | – | – | – | inhibition of PI2 cell fusion at high peptide concentration (PI2 virus [1]): could only partially inhibit cell fusion; syncytium formation / inhibition of cell fusion in PI2 infected HeLa-T4 cells (in words) (PI2 virus [1]; [8]): dramatically decreased; inhibition of PI2 virus-induced cell fusion (PI2 virus [1]; peptide 200 μM or more, 24 h post infection, m.o.i. 0.1): cell fusion was reduced remarkably; inhibition of cell fusion by vaccinia-expressed PI2 F and HN (in words) (PI2F + PI2HN): only partially inhibited cell fusion; effect on multiple cycle growth, PI2 (in words) (PI2 virus [2]): not as dramatic as
Ac-DLSNQINSINKSLKSAEDWIADSNFFANQARTAK-NH2 [peptide 2F1B34] | – | – | – | – | – | 50% effective concentration (EC50) of inhibition of virus infection efficiency, plaque assay, Reed-Muench method [3]: 53.8 µM; viral titer in the culture supernatant 48 h post infection (plaque assay) (fold decrease) [4]: 15; plaque size (peptide in the agar overlay after virus absorption, Vero cells) [5]: 1.5 mm
B1 | 31.3 % of SN-HN wt with SN-F | 61.6 | 0.51 | comparable or higher HAD activity than that of SN-HN | high levels of hemadsorption | –
Ac-ELNKAKSDLEESKEWIRRSNQKLDSIGNWHQSSTT-NH2 [peptide 3F1B35] | – | – | – | – | – | 50% effective concentration (EC50) of inhibition of virus infection efficiency, plaque assay, Reed-Muench method [7]: 81.6 µM; viral titer in the culture supernatant post infection [7]: 10 fold reduction
B2 | 6.72 % of SN-HN wt with SN-F | 72.0 | 0.09 | 30.5% | lower activities | fusion promoting activity, percentage of wild type SN-HN (SN-F): 6.7%
B3 | 55.3 % of SN-HN wt with SN-F | 131.5 | 0.42 | comparable or higher HAD activity than that of SN-HN | high levels of hemadsorption | –
B4 | 8.82 % of SN-HN wt with SN-F | 82.3 | 0.11 | comparable or higher HAD activity than that of SN-HN | high levels of hemadsorption | fusion promoting activity, percentage of wild type SN-HN (SN-F): 8.8%
